Target: bispecific binding molecule comprising a first specific binding molecule (comprising SEQ ID NO:265 a)
Sequence (chain, as listed by the source, chain 1 of 3): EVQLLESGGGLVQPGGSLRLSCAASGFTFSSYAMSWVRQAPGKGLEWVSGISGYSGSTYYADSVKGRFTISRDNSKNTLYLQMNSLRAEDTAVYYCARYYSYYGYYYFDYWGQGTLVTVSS
Sequence (chain, as listed by the source, chain 2 of 3): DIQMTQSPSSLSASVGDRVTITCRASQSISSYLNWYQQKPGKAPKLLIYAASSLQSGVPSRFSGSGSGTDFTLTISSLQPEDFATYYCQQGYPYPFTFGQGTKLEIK
Sequence (chain, as listed by the source, chain 3 of 3): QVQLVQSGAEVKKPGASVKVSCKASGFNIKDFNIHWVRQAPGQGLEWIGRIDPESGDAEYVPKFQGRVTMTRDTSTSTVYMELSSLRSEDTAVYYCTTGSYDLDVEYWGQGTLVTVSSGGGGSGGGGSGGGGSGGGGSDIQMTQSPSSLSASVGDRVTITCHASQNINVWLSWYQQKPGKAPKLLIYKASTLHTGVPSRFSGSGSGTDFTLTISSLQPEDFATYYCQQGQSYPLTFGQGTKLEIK

Q: FIGITELHKGGSAVGALKVPRNQDWLGVPRQL (modifications not checked) [peptide SEQ ID NO:239 (tag moiety …, GGS spacer, cargo peptide)] was tested. Which Kd did it give?
A: Its Kd is 63 pM.

Q: How did the Kd turn out when FIGITELLKSSAESLKISQAVHAAHAEINEAGREVVGSAE (modifications not checked) [peptide SEQ ID NO:241 (tag moiety …, no spacer, cargo peptide)] was run?
A: The Kd was 13 pM.

Q: Which Kd does the source give for FIGITELHKSSAESLKISQAVHAAHAEINEAGREVVGSAE (modifications not checked) [peptide SEQ ID NO:242 (tag moiety …, no spacer, cargo peptide)] here?
A: The Kd was 19 pM.

Q: FIGITELLKGGSSSAESLKISQAVHAAHAEINEAGREVVGSAE (modifications not checked) [peptide SEQ ID NO:244 (tag moiety …, GGS spacer, cargo peptide)] was tested. Which Kd did it give?
A: The Kd was 19 pM.

Q: FIGITELHKGGSSSAESLKISQAVHAAHAEINEAGREVVGSAE (modifications not checked) [peptide SEQ ID NO:245 (tag moiety …, GGS spacer, cargo peptide)] was tested. Which Kd did it give?
A: The Kd was 5.4 pM.

Q: How did the Kd turn out when FIGITELLK (modifications not checked) [tag moiety … (SEQ ID NO:3)] was run?
A: Its Kd is 63 pM.

Q: FIGITELHK (modifications not checked) [tag moiety … (SEQ ID NO:4)] was tested. Which Kd did it give?
A: Its Kd is 15 pM.

Q: FIGITELLKGGSAVGALKVPRNQDWLGVPRQL (modifications not checked) [peptide SEQ ID NO:238 (tag moiety …, GGS spacer, cargo peptide)] was tested. Which Kd did it give?
A: The Kd was 171 pM.
